B1: Meiosis-specific protein SPO11 (Saccharomyces cerevisiae), P23179 (parent)
chain: MALEGLRKKYKTRQELVKALTPKRRSIHLNSNGHSNGTPCSNADVLAHIKHFLSLAANSLEQHQQPISIVFQNKKKKGDTSSPDIHTTLDFPLNGPHLCTHQFKLKRCAILLNLLKVVMEKLPLGKNTTVRDIFYSNVELFQRQANVVQWLDVIRFNFKLSPRKSLNIIPAQKGLVYSPFPIDIYDNILTCENEPKMQKQTIFPGKPCLIPFFQDDAVIKLGTTSMCNIVIVEKEAVFTKLVNNYHKLSTNTMLITGKGFPDFLTRLFLKKLEQYCSKLISDCSIFTDADPYGISIALNYTHSNERNAYICTMANYKGIRITQVLAQNNEVHNKSIQLLSLNQRDYSLAKNLIASLTANSWDIATSPLKNVIIECQREIFFQKKAEMNEIDARIFEYK
partner: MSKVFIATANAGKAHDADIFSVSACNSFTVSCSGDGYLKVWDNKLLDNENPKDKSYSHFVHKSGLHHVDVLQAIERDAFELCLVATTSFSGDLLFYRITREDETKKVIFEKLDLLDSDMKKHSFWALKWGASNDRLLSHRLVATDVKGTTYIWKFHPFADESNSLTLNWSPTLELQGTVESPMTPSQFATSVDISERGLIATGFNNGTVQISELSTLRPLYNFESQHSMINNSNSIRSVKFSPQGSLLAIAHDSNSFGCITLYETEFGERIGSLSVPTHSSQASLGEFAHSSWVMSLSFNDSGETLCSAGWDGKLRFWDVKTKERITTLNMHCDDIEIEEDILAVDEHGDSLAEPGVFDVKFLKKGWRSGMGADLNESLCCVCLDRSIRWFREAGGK

Variants of: B1
Details: with ski8_yeast SKI8, Q02793

Variant | effect of a mutation on the interaction
MALEGLRKKYKTRQELVKALTPKRRSIHLNSNGHSNGTPCSNADVLAHIKHFLSLAANSLEQHQQPISIVFQNKKKKGDTSSPDIHTTLDFPLNGPHLCTHQFKLKRCAILLNLLKVVMEKLPLGKNTTVRDIFYSNVELFQRQANVVQWLDVIRFNFKLSPRKSLNIIPAQKGLVYSPFPIDIYDNILTCENEPKMQKQTIFPGKPCLIPFFQDDAVIKLGTTSMCNIVIVEKEAVFTKLVNNYHKLSTNTMLITGKGFPDFLTRLFLKKLEQYCSKLISDCSIFTDADPYGISIALNYTHSNERNAYICTMANYKGIRITQVLAQNNEVHNKSIQLLSLNQRDYSLAKNLIASLTANSWDIATSPLKNVIIECAREIFFQKKAEMNEIDARIFEYK [Q376A] | disrupting interaction strength
MALEGLRKKYKTRQELVKALTPKRRSIHLNSNGHSNGTPCSNADVLAHIKHFLSLAANSLEQHQQPISIVFQNKKKKGDTSSPDIHTTLDFPLNGPHLCTHQFKLKRCAILLNLLKVVMEKLPLGKNTTVRDIFYSNVELFQRQANVVQWLDVIRFNFKLSPRKSLNIIPAQKGLVYSPFPIDIYDNILTCENEPKMQKQTIFPGKPCLIPFFQDDAVIKLGTTSMCNIVIVEKEAVFTKLVNNYHKLSTNTMLITGKGFPDFLTRLFLKKLEQYCSKLISDCSIFTDADPYGISIALNYTHSNERNAYICTMANYKGIRITQVLAQNNEVHNKSIQLLSLNQRDYSLAKNLIASLTANSWDIATSPLKNVIIECQAAIFFQKKAEMNEIDARIFEYK [R377A;E378A] | disrupting interaction strength
